Measured values reported in patent US20200317768A1 (published 2020).

B1: M103205H795-MY101/M103202L889-SK1 (antibody, human IgG1, kappa)
heavy: QVTLKESGPVLVKPTETLTLTCTVSGIDLSHDDISWVRQAPGKGLEWVGIISYAGSTYYASWAKGRLTISKDTSKNQVVLTMTNMDPVDTATYYCARGVPAYSHGGDLWGQGTLVTVSSASTKGPSVFPLAPSSKSTSGGTAALGCLVKDYFPEPVTVSWNSGALTSGVHTFPAVLQSSGLYSLSSVVTVPSSSLGTQTYICNVNHKPSNTKVDKKVEPKSCDKTHTCPPCPAPELLNGPSVFLFPPKPKDTLMISRTPEVTCVVVDVSEEDPEVKFNWYVDGVEVHNAKTKPREEQYNSTYRVVSVLTVLHQDWLNGKEYKCKVSNKALPKPIEKTISKAKGQPREPQVYTLPPSREEMTKNQVSLTCLVKGFYPSDIAVEWESNGQPENNYKTTPMVLDSDGSFFLYSKLTVDKSRWQQGNVFSCSVMHEALHNHYTQKSLSLSP
light: DIVMTQSPATLSLSPGERATLSCTSSQSVYHANWLSWFQQKPGQPPKLLIYWASTLAYGVPSRFSGSGSGTDFTLTISSLQPEDAATYYCAGGYGGGRYAFGQGTKVEIKRTVAAPSVFIFPPSDEQLKSGTASVVCLLNNFYPREAKVQWKVDNALQSGNSQESVTEQDSKDSTYSLSSTLTLSKADYEKHKVYACEVTHQGLSSPVTKSFNRGEC
notes: also called MS1032LO06-MY101
B2: M103205H795-MY141/M103202L889-SK1 (antibody, human IgG1, kappa)
heavy: QVTLKESGPVLVKPTETLTLTCTVSGIDLSHDDISWVRQAPGKGLEWVGIISYAGSTYYASWAKGRLTISKDTSKNQVVLTMTNMDPVDTATYYCARGVPAYSHGGDLWGQGTLVTVSSASTKGPSVFPLAPSSKSTSGGTAALGCLVKDYFPEPVTVSWNSGALTSGVHTFPAVLQSSGLYSLSSVVTVPSSSLGTQTYICNVNHKPSNTKVDKKVEPKSCDKTHTCPPCPAPELLNGPSVFLFPPKPKDTLMISRTPEVTCVVVDVAHEDPEVKFNWYVDGVEVHNAKTKPREEQYNSTYRVVSVLTVLHQDWLNGKEYKCKVSNKALPAPIEKTISKAKGQPREPQVYTLPPSREEMTKNQVSLTCLVKGFYPSDIAVEWESNGQPENNYKTTPMVLDSDGSFFLYSKLTVDKSRWQQGNVFSCSVMHEALHNHYTQKSLSLSP
light: DIVMTQSPATLSLSPGERATLSCTSSQSVYHANWLSWFQQKPGQPPKLLIYWASTLAYGVPSRFSGSGSGTDFTLTISSLQPEDAATYYCAGGYGGGRYAFGQGTKVEIKRTVAAPSVFIFPPSDEQLKSGTASVVCLLNNFYPREAKVQWKVDNALQSGNSQESVTEQDSKDSTYSLSSTLTLSKADYEKHKVYACEVTHQGLSSPVTKSFNRGEC
notes: Substitutions introduced into M103205H795-SG1; expressed with M103202L889-SK1 as light chain
B3: M103205H795-MY115/M103202L889-SK1 (antibody, human IgG1, kappa)
heavy: QVTLKESGPVLVKPTETLTLTCTVSGIDLSHDDISWVRQAPGKGLEWVGIISYAGSTYYASWAKGRLTISKDTSKNQVVLTMTNMDPVDTATYYCARGVPAYSHGGDLWGQGTLVTVSSASTKGPSVFPLAPSSKSTSGGTAALGCLVKDYFPEPVTVSWNSGALTSGVHTFPAVLQSSGLYSLSSVVTVPSSSLGTQTYICNVNHKPSNTKVDKKVEPKSCDKTHTCPPCPAPELLNGPSVFLFPPKPKDTLMISRTPEVTCVVVDVAEEDPEVKFNWYVDGVEVHNAKTKPREEQYNSTYRVVSVLTVLHQDWLNGKEYKCKVSNKALPAPIEKTISKAKGQPREPQVYTLPPSREEMTKNQVSLTCLVKGFYPSDIAVEWESNGQPENNYKTTPMVLDSDGSFFLYSKLTVDKSRWQQGNVFSCSVMHEALHNHYTQKSLSLSP
light: DIVMTQSPATLSLSPGERATLSCTSSQSVYHANWLSWFQQKPGQPPKLLIYWASTLAYGVPSRFSGSGSGTDFTLTISSLQPEDAATYYCAGGYGGGRYAFGQGTKVEIKRTVAAPSVFIFPPSDEQLKSGTASVVCLLNNFYPREAKVQWKVDNALQSGNSQESVTEQDSKDSTYSLSSTLTLSKADYEKHKVYACEVTHQGLSSPVTKSFNRGEC
notes: as for B2
B4: M103205H795-MY105/M103202L889-SK1 (antibody, human IgG1, kappa)
heavy: QVTLKESGPVLVKPTETLTLTCTVSGIDLSHDDISWVRQAPGKGLEWVGIISYAGSTYYASWAKGRLTISKDTSKNQVVLTMTNMDPVDTATYYCARGVPAYSHGGDLWGQGTLVTVSSASTKGPSVFPLAPSSKSTSGGTAALGCLVKDYFPEPVTVSWNSGALTSGVHTFPAVLQSSGLYSLSSVVTVPSSSLGTQTYICNVNHKPSNTKVDKKVEPKSCDKTHTCPPCPAPELLNGPVVFLFPPKPKDTLMISRTPEVTCVVVDVSEEDPEVKFNWYVDGVEVHNAKTKPREEQYNSTYRVVSVLTVLHQDWLNGKEYKCKVSNKALPAPIEKTISKAKGQPREPQVYTLPPSREEMTKNQVSLTCLVKGFYPSDIAVEWESNGQPENNYKTTPMVLDSDGSFFLYSKLTVDKSRWQQGNVFSCSVMHEALHNHYTQKSLSLSP
light: DIVMTQSPATLSLSPGERATLSCTSSQSVYHANWLSWFQQKPGQPPKLLIYWASTLAYGVPSRFSGSGSGTDFTLTISSLQPEDAATYYCAGGYGGGRYAFGQGTKVEIKRTVAAPSVFIFPPSDEQLKSGTASVVCLLNNFYPREAKVQWKVDNALQSGNSQESVTEQDSKDSTYSLSSTLTLSKADYEKHKVYACEVTHQGLSSPVTKSFNRGEC
notes: as for B2
B5: M103205H795-MY117/M103202L889-SK1 (antibody, human IgG1, kappa)
heavy: QVTLKESGPVLVKPTETLTLTCTVSGIDLSHDDISWVRQAPGKGLEWVGIISYAGSTYYASWAKGRLTISKDTSKNQVVLTMTNMDPVDTATYYCARGVPAYSHGGDLWGQGTLVTVSSASTKGPSVFPLAPSSKSTSGGTAALGCLVKDYFPEPVTVSWNSGALTSGVHTFPAVLQSSGLYSLSSVVTVPSSSLGTQTYICNVNHKPSNTKVDKKVEPKSCDKTHTCPPCPAPEWLNGPSVFLFPPKPKDTLMISRTPEVTCVVVDVAEEDPEVKFNWYVDGVEVHNAKTKPREEQYNSTYRVVSVLTVLHQDWLNGKEYKCKVSNKALPAPIEKTISKAKGQPREPQVYTLPPSREEMTKNQVSLTCLVKGFYPSDIAVEWESNGQPENNYKTTPMVLDSDGSFFLYSKLTVDKSRWQQGNVFSCSVMHEALHNHYTQKSLSLSP
light: DIVMTQSPATLSLSPGERATLSCTSSQSVYHANWLSWFQQKPGQPPKLLIYWASTLAYGVPSRFSGSGSGTDFTLTISSLQPEDAATYYCAGGYGGGRYAFGQGTKVEIKRTVAAPSVFIFPPSDEQLKSGTASVVCLLNNFYPREAKVQWKVDNALQSGNSQESVTEQDSKDSTYSLSSTLTLSKADYEKHKVYACEVTHQGLSSPVTKSFNRGEC
notes: as for B2

Tests used:
Assay in all cases: SPR (Biacore), antibody captured, FcgR analyte
[1] = molecular target: T1, cynomolgus monkey FcγRIIa1 extracellular domain, C-terminal His-tag (cynomolgus monkey)
T1 construct: also called cyno FcγRIIa1; cynoFcgRIIa1
T1 chain: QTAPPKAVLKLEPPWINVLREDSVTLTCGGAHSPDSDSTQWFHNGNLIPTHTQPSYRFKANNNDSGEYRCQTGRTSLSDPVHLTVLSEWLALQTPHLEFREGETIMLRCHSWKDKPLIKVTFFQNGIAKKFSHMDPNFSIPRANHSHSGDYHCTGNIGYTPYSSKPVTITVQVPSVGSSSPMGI

[2] = molecular target: T2, human FcγRIIIaV extracellular domain, C-terminal His-tag (human, UniProt P08637 17-208)
T2 construct: also called human FcgRIIIaV; FcgRIIIaV

[3] = molecular target: T3, cynomolgus monkey FcγRIIb extracellular domain, C-terminal His-tag (cynomolgus monkey)
T3 construct: also called cyno FcγRIIb; cynoFcγRIIb
T3 chain: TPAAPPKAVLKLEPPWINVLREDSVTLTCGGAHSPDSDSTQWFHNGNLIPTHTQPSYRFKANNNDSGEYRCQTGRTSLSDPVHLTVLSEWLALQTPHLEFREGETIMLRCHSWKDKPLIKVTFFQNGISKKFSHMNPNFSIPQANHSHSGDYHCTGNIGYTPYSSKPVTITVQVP

[4] = molecular target: T4, human FcγRIIaR extracellular domain, C-terminal His-tag (human, UniProt P12318 34-217)
T4 construct: also called human FcγRIIa (type R); FcgRIIaR
T4 chain: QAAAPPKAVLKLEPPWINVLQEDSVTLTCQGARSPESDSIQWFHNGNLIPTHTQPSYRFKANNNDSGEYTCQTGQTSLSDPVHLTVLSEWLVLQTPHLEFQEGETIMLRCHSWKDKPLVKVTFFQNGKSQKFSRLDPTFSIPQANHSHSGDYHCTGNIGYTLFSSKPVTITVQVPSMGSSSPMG

[5] = molecular target: T5, cynomolgus monkey FcγRIIa3 extracellular domain, C-terminal His-tag (cynomolgus monkey)
T5 construct: also called cyno FcγRIIa3; cynoFcgRIIa3
T5 chain: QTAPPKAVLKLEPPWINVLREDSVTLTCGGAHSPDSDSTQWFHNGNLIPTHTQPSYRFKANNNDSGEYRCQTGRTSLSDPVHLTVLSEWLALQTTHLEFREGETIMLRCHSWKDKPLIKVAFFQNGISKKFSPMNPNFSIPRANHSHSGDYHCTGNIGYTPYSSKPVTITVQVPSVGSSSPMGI

[6] = molecular target: T6, human FcγRIIaH extracellular domain, C-terminal His-tag (human, UniProt P12318 34-217)
T6 construct: also called human FcγRIIa (type H); FcgRIIaH
T6 sequence: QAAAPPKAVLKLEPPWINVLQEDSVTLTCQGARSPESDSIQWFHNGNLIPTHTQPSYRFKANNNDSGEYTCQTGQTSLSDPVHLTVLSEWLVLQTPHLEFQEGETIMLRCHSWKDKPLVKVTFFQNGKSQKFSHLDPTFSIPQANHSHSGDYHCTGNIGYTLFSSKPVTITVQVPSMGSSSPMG

[7] = molecular target: T7, cynomolgus monkey FcγRIIa2 extracellular domain, C-terminal His-tag (cynomolgus monkey)
T7 construct: also called cyno FcγRIIa2; cynoFcgRIIa2
T7 chain: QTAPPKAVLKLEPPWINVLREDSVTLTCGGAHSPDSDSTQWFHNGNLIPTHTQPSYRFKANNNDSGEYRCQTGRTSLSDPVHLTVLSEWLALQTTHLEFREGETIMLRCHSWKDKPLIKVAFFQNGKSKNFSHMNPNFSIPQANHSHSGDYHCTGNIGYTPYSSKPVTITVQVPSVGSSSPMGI

[8] = molecular target: T8, human FcγRIIb extracellular domain, C-terminal His-tag (human, UniProt P31994 43-217)
T8 construct: also called human FcgRIIb; FcgRIIb
T8 sequence: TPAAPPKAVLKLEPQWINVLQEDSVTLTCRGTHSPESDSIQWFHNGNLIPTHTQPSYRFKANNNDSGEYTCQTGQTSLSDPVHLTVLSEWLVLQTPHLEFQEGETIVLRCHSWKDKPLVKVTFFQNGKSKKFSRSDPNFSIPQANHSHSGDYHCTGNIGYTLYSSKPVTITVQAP

T2 sequence (P08637 17-208 F176V): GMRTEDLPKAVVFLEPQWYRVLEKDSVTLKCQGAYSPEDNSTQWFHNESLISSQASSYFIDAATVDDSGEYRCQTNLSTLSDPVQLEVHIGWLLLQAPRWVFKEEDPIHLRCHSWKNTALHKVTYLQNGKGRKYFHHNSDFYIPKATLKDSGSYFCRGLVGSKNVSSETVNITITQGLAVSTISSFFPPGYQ

Row | Binder | Kd [1] | Kd [2] | Kd [3] | Kd [4] | Kd [5] | Kd [6] | Kd [7] | Kd [8]
1 | B1 | 1100 nM | 11000 nM | 550 nM | 870 nM | 36000 nM | 480 nM | 1200 nM | 490 nM
2 | B2 | 22000 nM | 12000 nM | 1800 nM | 1600 nM | 20000 nM | 12000 nM | 2800 nM | 1100 nM
3 | B3 | 2300 nM | 8600 nM | 780 nM | 640 nM | 76000 nM | 960 nM | 2700 nM | 820 nM
4 | B4 | 12000 nM | 5900 nM | 390 nM | 1400 nM | 13000 nM | 15000 nM | 900 nM | 570 nM
5 | B5 | 2600 nM | 7300 nM | 1000 nM | 10000 nM | 9900 nM | 2200 nM | 3200 nM | 600 nM
